Measurements as given in patent publication US20100279930A1 (published 2010).
No end group written: not given here.

What follows are binders tested against T1, human Y4 receptor (human, UniProt P50391 1-375) (assay: 125I-PP displacement).
T1 sequence (P50391 whole entry): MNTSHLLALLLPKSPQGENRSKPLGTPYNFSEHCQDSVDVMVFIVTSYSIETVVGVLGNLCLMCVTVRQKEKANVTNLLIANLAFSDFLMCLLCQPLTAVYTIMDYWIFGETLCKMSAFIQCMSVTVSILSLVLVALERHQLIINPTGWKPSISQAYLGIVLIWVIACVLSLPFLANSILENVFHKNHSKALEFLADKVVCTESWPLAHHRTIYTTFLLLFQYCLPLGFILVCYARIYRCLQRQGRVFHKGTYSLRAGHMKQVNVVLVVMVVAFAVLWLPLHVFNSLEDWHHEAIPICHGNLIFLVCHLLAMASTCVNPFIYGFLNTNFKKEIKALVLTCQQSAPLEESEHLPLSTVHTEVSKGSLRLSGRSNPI

Row | Binder | IC50 [nM]
1 | PLEPHYPGDNATPEQLAKYAADLRRYINKLTRPRY [4057893] | 0.144
2 | AAPLEPSYPGDNATPEQMAHYYSELRRYINKLTRPRY [4057777] | 0.088
3 | PAPLEPTYPGDNATPEQLAHYYSELRRYINKLTRPRY [4057785] | 0.134
4 | GAPLEPHYPGDNATPEQMARYAAELRRYINKLTRPRY [4057903] | 0.09
5 | PAPLEPHYPGDNATPEQMAKYAAELRRYINKLTRPRY [4057766] | 0.089
6 | PAPLEPHYPGDNATPEQMAKYAAALRRYINKLTRPRY [4057756] | 0.124
7 | APLEPHYPGDNATPEQLAKYAADLRRYINKLTRPRY [4057751] | 0.065
8 | PAPLEPHYPGDDATPQQMARYAAELRRYINLLTRPRY [4058057] | 0.111
9 | PAPLEPSYPGDDATPQQMAHYYAELRRYINKLTRPRY [4057774] | 0.227
10 | YAPLEPHYPGDDATPQQMARYAAELRRYINLLTRPRY [4058055] | 0.11
11 | AAPLEPHYPGDDATPQQMAHYYSELRRYINKLTRPRY [4057788] | 0.155

Target: T1, human Y4 receptor
Assay: 125I-PP displacement
Remark: another data set of the same source

Row | Binder | IC50 [nM]
12 | PLEPSYPGDNATPEQMAKYAAELRRYINLLTRPRY [4058152] | 0.088
13 | PLEPKYPGDNATPEQLAKYAAELRRYINKLTRPRY [4058165] | 0.063
14 | PLEPSYPGDNATPEQMAKYAAELRRYINKLTRPRY [4058146] | 0.046
15 | PLEPEYPGDNATPEQMAKYAAELRRYINLLTRPRY [4058154] | 0.105
16 | PLEPEYPGDNATPEEMAKYAAELRRYINKLTRPRY [4058072] | 0.051
17 | PLEPTYPGDNATPEQMARYAAALRRYINKLTRPRY [4058067] | 0.047
18 | PAPLEPTYPGDNATPEQMARYAAALRRYINKLTRPRY [4058070] | 0.03
19 | PAPLEPVYPGDNATPEQLARYYSELRRYINKLTRPRY [4058297] | 0.043
20 | AAPLEPVYPGDNATPEQMARYYSELRRYINKLTRPRY [4058280] | 0.042
21 | PAPLEAVYPGDNATPEQMARYYSELRRYINKLTRPRY (ends and bridges not checked) [compound of SEQ ID NO:702 (code 4058286)] | 0.093
22 | AAPLEPVYPGDNATPEEMARYYSELRRYINKLTRPRY [4058295] | 0.059
23 | PAPLEIVYPGDNATPEQMARYYSELRRYINKLTRPRY [4058285] | 0.21
24 | AAPLEPKYPGDNATPEQLAKYAAELRRYINKLTRPRY [4058166] | 0.056
25 | PAPLEPKYPGDNATPEQLAKYAAELRRYINKLTRPRY [4058168] | 0.048
26 | GAPLEPKYPGDNATPEQMAKYAAELRRYINKLTRPRY [4058160] | 0.052
27 | HAPLEPSYPGDNATPEQMAKYAAELRRYINKLTRPRY [4058150] | 0.113

Row | Binder | IC50 [nM]
28 | PAPLEPHYPGDNATPEEMAKYAAELRRYINKLTRPRY [4058079] | 0.071
29 | PAPLEPEYPGDNATPEQMAKYAAELRRYINLLTRPRY [4058155] | 0.125
30 | AAPLEPKYPGDNATPEQMAKYAAELRRYINKLTRPRY [4058159] | 0.106
31 | YAPLEPEYPGDNATPEEMAKYAAELRRYINKLTRPRY [4058075] | 0.058
32 | AAPLEPSYPGDNATPEQMAKYAAELRRYINKLTRPRY [4058148] | 0.051
33 | AAPLEPEYPGDNATPEEMAKYAAELRRYINKLTRPRY [4058076] | 0.048
34 | GAPLEPSYPGDNATPEQMAKYAAELRRYINKLTRPRY [4058149] | 0.07
35 | HAPLEPKYPGDNATPEQMAKYAAELRRYINKLTRPRY [4058163] | 0.087
36 | YAPLEPKYPGDNATPEQMAKYAAELRRYINKLTRPRY [4058164] | 0.058
37 | PAPLEPEYPGDNATPEELAKYAAELRRYINKLTRPRY [4058078] | 0.072
38 | GAPLEPEYPGDNATPEEMAKYAAELRRYINKLTRPRY [4058073] | 0.131
39 | AAPLEPVYPGDNATPEQLARYYSELRRYINKLTRPRY [4058298] | 0.072
40 | YAPLEPSYPGDNATPEQMAKYAAELRRYINKLTRPRY [4058151] | 0.058
41 | PAPLEPSYPGDNATPEQMAKYAAELRRYINLLTRPRY [4058153] | 0.107
42 | PLEPVYPGDNATPEQLARYYSELRRYINKLTRPRY [4058296] | 0.053
43 | APLEPSYPGDNATPEQMAKYAAELRRYINKLTRPRY [4058147] | 0.057
